Several values for one entry are separate records, joined by “and”; a condition that tells them apart may be missing. Equal entries are not always repeated.
Columns and labels:
[1] = target: T1, human PSCA (prostate stem cell antigen, PSCA v.1) (human, UniProt O43653 12-83); assay: FACS saturation binding on LAPC9AI cells, one-site binding (hyperbola) fit, Graphpad Prism
T1 construct: The whole entry is named; also called PSCA变体1; 细胞表面PSCA
T1 sequence: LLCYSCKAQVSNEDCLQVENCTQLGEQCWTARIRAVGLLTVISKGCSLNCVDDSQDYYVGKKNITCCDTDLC

[2] = target: T1, human PSCA (prostate stem cell antigen, …); assay: FACS-based affinity on cell-surface PSCA (LAPC9AI cells)

Kd [1]: 0.593 nM and 0.636 nM
Kd [2]: 0.6 nM
B1: anti-PSCA MAb H1-1.10 (antibody, V domains shown)
VH: QLQESGPGLVKPSQTLSLTCTVSGGSISSGGYYWSWIRQHPGKGLEWIGYIYYSGSTYYNPSLKSRVTISVDTSKNQFSLKLSSGTAADTAVYYCARDHITMVRGVPKGMDVWGQGTTVTVSS
VL: QLTQSPSSLSASVGDRVTITCRASQSISRHLNWYQQKPGKAPKFLIYVASSLQSGVPSRFSGSGSGTDFTLTISSLQPEDFATYFCQQSYSIPRTFGQGTKVEIKR
notes: Fully human IgG1 (gamma 1) / kappa antibody from XenoMouse immunised with B300.19/PSCA cells; tested as hybridoma supernatant or purified antibody; also called PSCA H1-1.10; H1/1.10.1.1
